# US20250034271A1 (EUCURE BEIJING BIOPHARMA, published 2025)
# Residue numbers refer to the chain shown, from its start. Names may count otherwise.
# B1: 7F10-mHvKv-IgG1-N297A (antibody, V domains shown)
# VH: EVKLVESGGGLVQPGGSLKLSCATSGFTFSDYYMYWVRQTPEKRLEWVAYISYGGDSTFYPDTVRGRFTISRDNAKNALYLQMSRLKSEDTAVYYCARPAPSAHSYYLDYWGQGTTLTVSS
# VL: DIQMTQTTSSLSASLGDRVTISCRASQDISNYLNWYQQKPDGTVKLLIYYTSRLHSGLPSRFSGSGSGTDYSLTISNLEQEDIATYYCQQGKTLPFTFASGTKLEIK
# notes: Chimeric; human IgG1 constant regions with N297A mutation (EU numbering) in the Fc region
# B2: 7F10-H2K3-IgG4 (antibody, V domains shown)
# VH: B1 VH with K3Q, K19R, T40A, E42G, A78S, R85S, S88A, T116L
# VL: B1 VL with T7S, L15V, S22T, D41G, T43A, S72T, N77S, E79Q
# notes: Humanized
# B3: 7F10-H1K1-IgG4 (antibody, V domains shown)
# VH: B1 VH with K3Q, K19R, T40A, E42G, A78S, S84N, R85S, K87R, S88A, T116L
# VL: DIQMTQSPSSLSASVGDRVTITCRASQDISNYLNWYQQKPGGAVKLLIYYTSRLHSGLPSRFSGSGSGTDFTFTISSLQPEDIATYYCQQGKTLPFTFASGTKLEIK
# notes: Humanized
# B4: 7F10-H3K3-IgG4 (antibody, V domains shown)
# VH: B1 VH with K19R, T40A, S88A
# VL: B3 VL with P8T, F71Y, F73L, P80Q
# notes: Humanized
# B5: 7F10-H2K2-IgG4 (antibody, V domains shown)
# VH: B1 VH with K3Q, K19R, T40A, E42G, A78S, R85S, S88A, T116L
# VL: B3 VL with F71Y
# notes: Humanized
# B6: 7F10-H1K2-IgG4 (antibody, V domains shown)
# VH: B1 VH with K3Q, K19R, T40A, E42G, A78S, S84N, R85S, K87R, S88A, T116L
# VL: B3 VL with F71Y
# notes: Humanized
# B7: 7F10-H3K1-IgG4 (antibody, V domains shown)
# VH: B1 VH with K19R, T40A, S88A
# VL: B3 VL
# notes: Humanized
# B8: 7F10-H2K1-IgG4 (antibody, V domains shown)
# VH: B1 VH with K3Q, K19R, T40A, E42G, A78S, R85S, S88A, T116L
# VL: B3 VL
# notes: Humanized
# B9: 7F10-H1K4-IgG4 (antibody, V domains shown)
# VH: B1 VH with K3Q, K19R, T40A, E42G, A78S, S84N, R85S, K87R, S88A, T116L
# VL: B3 VL with P8T, G41D, A43T, F71Y, F73L, P80Q
# notes: Humanized
# B10: 7F10-H3K4-IgG4 (antibody, V domains shown)
# VH: B1 VH with K19R, T40A, S88A
# VL: B3 VL with P8T, G41D, A43T, F71Y, F73L, P80Q
# notes: Humanized
# B11: 7F10-H2K4-IgG4 (antibody, V domains shown)
# VH: B1 VH with K3Q, K19R, T40A, E42G, A78S, R85S, S88A, T116L
# VL: B3 VL with P8T, G41D, A43T, F71Y, F73L, P80Q
# notes: Humanized
# B12: 7F10-H3K2-IgG4 (antibody, V domains shown)
# VH: B1 VH with K19R, T40A, S88A
# VL: B3 VL with F71Y
# notes: Humanized
# B13: 7F10-H1K3-IgG4 (antibody, V domains shown)
# VH: B1 VH with K3Q, K19R, T40A, E42G, A78S, S84N, R85S, K87R, S88A, T116L
# VL: B3 VL with P8T, F71Y, F73L, P80Q
# notes: Humanized
# B14: 4H6-H2K2-IgG4 (antibody, V domains shown)
# VH: EVQLQESGPGLVKPSQTLSLTCTVSGDSVSSGYWNWIRKHPGKKLEWIGFISYSGSTYYTPSLKSRVTISRDTSKNQFSLKLSSVTAADTAVYYCARFRRYDDGVDYWGQGTLVTVSS
# VL: DIQMTQSPSAMSASVGDRVTITCRASHEISGYLSWIQQKPGGTIKRLINAASTLASGVPSRFSGSRSGTEFTLTISSLQPEDFADYYCLQYSSYPWTFGGGTKLEIK
# notes: Humanized
# B15: 4H6-H2K3-IgG4 (antibody, V domains shown)
# VH: B14 VH
# VL: B14 VL with F71Y
# notes: Humanized
# B16: 4H6-H3K3-IgG4 (antibody, V domains shown)
# VH: B14 VH with W47Y, I48M, V67I, Y94F
# VL: B14 VL with F71Y
# notes: Humanized
# B17: 4H6-H4K4-IgG4 (antibody, V domains shown)
# VH: B14 VH with H40F, W47Y, I48M, V67I, Y94F
# VL: B14 VL with I21L, F71Y
# notes: Humanized
# B18: 4H6-H1K1-IgG4 (antibody, V domains shown)
# VH: B14 VH with E1Q
# VL: B14 VL with I36F, T43V, D85T
# notes: Humanized
# B19: 4H6-H4K3-IgG4 (antibody, V domains shown)
# VH: B14 VH with H40F, W47Y, I48M, V67I, Y94F
# VL: B14 VL with F71Y
# notes: Humanized
# B20: 4H6-H2K1-IgG4 (antibody, V domains shown)
# VH: B14 VH
# VL: B14 VL with I36F, T43V, D85T
# notes: Humanized
# B21: 4H6-H4K1-IgG4 (antibody, V domains shown)
# VH: B14 VH with H40F, W47Y, I48M, V67I, Y94F
# VL: B14 VL with I36F, T43V, D85T
# notes: Humanized
# B22: 4H6-H3K4-IgG4 (antibody, V domains shown)
# VH: B14 VH with W47Y, I48M, V67I, Y94F
# VL: B14 VL with I21L, F71Y
# notes: Humanized
# B23: 4H6-H3K1-IgG4 (antibody, V domains shown)
# VH: B14 VH with W47Y, I48M, V67I, Y94F
# VL: B14 VL with I36F, T43V, D85T
# notes: Humanized
# B24: 4H6-H1K2-IgG4 (antibody, V domains shown)
# VH: B14 VH with E1Q
# VL: B14 VL
# notes: Humanized
# B25: 4H6-H1K4-IgG4 (antibody, V domains shown)
# VH: B14 VH with E1Q
# VL: B14 VL with I21L, F71Y
# notes: Humanized
# B26: 4H6-H1K3-IgG4 (antibody, V domains shown)
# VH: B14 VH with E1Q
# VL: B14 VL with F71Y
# notes: Humanized
# B27: 4H6-H2K4-IgG4 (antibody, V domains shown)
# VH: B14 VH
# VL: B14 VL with I21L, F71Y
# notes: Humanized
# Target: T1, Histidine-tagged human CD40 protein (hCD40-His) (human, UniProt P25942 21-193)
# T1 construct: not shown: histidine tag
# Experiment: SPR, Biacore T200; antibody on Protein A chip, hCD40-His injected; 1:1 fit
# Experimental: The binding affinity of the anti-hCD40 antibodies were measured using surface plasmon resonance (SPR) using Biacore (Biacore, INC, Piscataway N.J.) T200 biosensor equipped with pre-immobilized Protein A sensor chips.
# Anti-hCD40 antibodies were collected by transfecting CHO-S cells and then purified. The antibodies (1 μg/mL) were injected into Biacore T200 biosensor at 10 μL/min for about 24-33 seconds to achieve to a desired protein density (about 44-57 response units (RU)). […] Dissociation was monitored for 300 seconds. The chip was regenerated after the last injection of each titration with Glycine (pH 2.0, 30 μL/min for 12 seconds).
# T1 sequence (P25942 21-193 limits assumed): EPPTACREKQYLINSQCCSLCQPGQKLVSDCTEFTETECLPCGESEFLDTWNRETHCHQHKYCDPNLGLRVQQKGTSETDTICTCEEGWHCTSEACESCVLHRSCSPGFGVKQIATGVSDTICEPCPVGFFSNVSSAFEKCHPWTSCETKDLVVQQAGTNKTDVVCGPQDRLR
Kd [nM],koff [s⁻¹],kon [M⁻¹ s⁻¹],Binder
194,0.0292,150000,B1
182,0.0313,172000,B2
291,0.0514,177000,B3
238,0.0314,132000,B4
505,0.0534,106000,B5
594,0.0491,82800,B6
430,0.0568,132000,B7
540,0.065,120000,B8
278,0.0321,115000,B9
184,0.0274,149000,B10
202,0.038,188000,B11
380,0.0482,127000,B12
535,0.0391,73100,B13
138,0.057,414000,B14
253,0.0659,260000,B15
91.6,0.0286,312000,B16
88.9,0.0278,312000,B17
7720,0.167,21700,B18
78.8,0.0257,327000,B19
447,0.227,507000,B20
145,0.0269,185000,B21
94.8,0.0282,298000,B22
413,0.0342,82700,B23
164,0.0632,386000,B24
465,0.0695,149000,B25
229,0.0554,242000,B26
378,0.0742,196000,B27
